Data from article PMC4297426.

Each substance was assayed against Gal4 (BD)-human NP: nucleoprotein of the contemporary human IAV H3N2 strain A/Ca/07/04 (influenza A virus H3N2, strain A/Ca/07/04 (human)) (assay: two-hybrid).

Substance | β-Gal activity
Solute carrier family 30 (zinc transporter), member 9 (SLC30A9) (domain or fragment) | 82.9 Miller units
Proteasome (prosome, macropain) activator subunit 2 (PA28B) (from UniProt Q9UL46 1-239) (natural protein) | 6.7 Miller units
Myb/SANT-like DNA-binding domain containing 3 (MSANTD3) (domain or fragment) | 13.9 Miller units
FLJ30306 (…: Homo sapiens uncharacterized LOC101059922, mRNA) (natural protein) | 1.9 Miller units
Transformer 2 beta homolog (Drosophila) (TRA2B) (from UniProt P62995 1-288) (natural protein) | 1.9 Miller units
Potassium channel tetramerisation domain containing 9 (KCTD9) (domain or fragment) | 5 Miller units
Cytoskeleton associated protein 5 (CKAP5) (domain or fragment) | 70.1 Miller units
phosphoribosylaminoimidazole carboxylase, phosphoribosylaminoimidazole succinocarboxamide synthetase (PAICS) (from UniProt P22234 1-425) (natural protein) | 2.2 Miller units
ATPase, Na+/K+ transporting, beta 1 polypeptide (ATP1B1) (domain or fragment) | 3.4 Miller units
Acyl-CoA thioesterase 13 (ACOT13) (from UniProt Q9NPJ3 1-140) (natural protein) | 6.9 Miller units
